{"source": "patent US20090175889A1", "assay_in_all_cases": "cell-based or functional assay", "key": {"[1]": {"biological_target": "human CXCR4 (on U87 human astroglioma cells stably transduced with human CXCR4) (human) (UniProt P61073)", "sequence (P61073 whole entry)": "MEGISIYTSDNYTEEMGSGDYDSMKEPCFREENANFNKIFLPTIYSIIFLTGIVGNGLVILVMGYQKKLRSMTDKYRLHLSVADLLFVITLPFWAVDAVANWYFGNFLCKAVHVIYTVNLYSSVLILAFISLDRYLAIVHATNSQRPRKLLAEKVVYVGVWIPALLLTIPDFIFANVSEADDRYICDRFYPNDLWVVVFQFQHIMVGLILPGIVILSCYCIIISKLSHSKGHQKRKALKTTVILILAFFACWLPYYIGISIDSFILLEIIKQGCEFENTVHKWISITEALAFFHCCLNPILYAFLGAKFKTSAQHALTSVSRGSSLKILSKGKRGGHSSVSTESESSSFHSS"}, "[2]": {"biological_target": "HIV-1 89.6 Env glycan mutant N7 (N197Q) (HIV-1 isolate 89.6) (UniProt Q73372)"}, "[3]": {"biological_target": "HIV-1 89.6 Env glycan mutant NV3 (N301Q) (HIV-1 isolate 89.6) (UniProt Q73372)"}, "[4]": {"biological_target": "HIV-1 89.6 Env triple glycan mutant N67V3 (N6, N7 and NV3: N187Q, N197Q, N301Q) (HIV-1 isolate 89.6) (UniProt Q73372)"}}}
{"substance": "HIV-1 89.6 Env glycan mutant N7 (N197Q) (from UniProt Q73372 32-853)", "values": [{"measurement": "relative infectivity of pseudotyped virus in U87-CXCR4 cells in the absence of CD4 (vs WT virus)", "setting": "[1]", "result": 10, "unit": "fold"}]}
{"substance": "HIV-1 89.6 Env glycan mutant NV3 (N301Q) (from UniProt Q73372 32-853)", "values": [{"measurement": "increase in infectivity in CD4-negative cells as compared to WT Env", "setting": "[1]", "result": "2 to 3", "unit": "fold"}]}
{"substance": "monoclonal antibody 2G12", "values": [{"measurement": "increase in neutralization sensitivity (vs WT)", "setting": "[2]", "result": 3, "unit": "fold"}, {"measurement": "decrease in neutralization sensitivity (vs WT)", "setting": "[3]", "result": "2 to 3", "unit": "fold"}]}
{"substance": "monoclonal antibody 4E10", "values": [{"measurement": "increase in neutralization sensitivity (vs WT)", "setting": "[2]", "result": 3, "unit": "fold"}, {"measurement": "increase in neutralization sensitivity (vs WT)", "setting": "[4]", "result": 3, "unit": "fold"}]}
{"substance": "monoclonal antibody 17b", "values": [{"measurement": "sensitivity to 17b without sCD4, compared to the WT or the N6 and NV3 mutants in the presence of sCD4", "setting": "[2]", "result": 30, "unit": "fold"}, {"measurement": "sensitivity to 17b without sCD4, compared to the WT or the N6 and NV3 mutants in the presence of sCD4", "setting": "[4]", "result": 30, "unit": "fold"}]}
{"substance": "monoclonal antibody IgG1b12", "values": [{"measurement": "enhancement in neutralization sensitivity compared to wild-type 89.6", "setting": "[2]", "result": 60, "unit": "fold"}]}
{"substance": "recombinant sCD4-Ig (from UniProt P01730 26-204) (Fc fusion)", "values": [{"measurement": "enhancement in neutralization sensitivity compared to wild-type 89.6", "setting": "[2]", "result": 50, "unit": "fold"}]}
